Substitutions are numbered along the chain they refer to.
Key:
Experiment in all cases: staining of transfected COS-7 cells, FACS
[1] = biological target: T1, human gc chain mutant, LNH replaced by Ala (Domain 2 Loop BC), myc-tagged, on COS-7 cells (human, UniProt P31785 23-369)
T1 construct: whole, on cells; not shown: 9 amino acid myc tag at the 5' end of the construct
T1 sequence (looked up): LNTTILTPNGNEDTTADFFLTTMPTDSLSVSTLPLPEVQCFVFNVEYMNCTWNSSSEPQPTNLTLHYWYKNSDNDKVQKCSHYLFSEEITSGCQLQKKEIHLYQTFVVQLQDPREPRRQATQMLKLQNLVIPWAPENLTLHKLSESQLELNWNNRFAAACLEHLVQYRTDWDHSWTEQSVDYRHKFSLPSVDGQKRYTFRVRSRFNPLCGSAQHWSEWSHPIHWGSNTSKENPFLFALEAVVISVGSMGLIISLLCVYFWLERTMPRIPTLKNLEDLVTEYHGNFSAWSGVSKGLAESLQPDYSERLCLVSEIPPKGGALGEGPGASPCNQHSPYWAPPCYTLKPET

[2] = biological target: T2, human gc chain mutant, PL replaced by Ala (Domain 2 Loop FQ), myc-tagged, on COS-7 cells (human, UniProt P31785 23-369)
T2 construct: whole, on cells; not shown: 9 amino acid myc tag at the 5' end of the construct
T2 sequence (looked up): T1 sequence (looked up) with A157L, A158N, A159H, P207A, L208A

[3] = biological target: T3, human gc chain mutant, VIP replaced by Ala (interdomain residues), myc-tagged, on COS-7 cells (human, UniProt P31785 23-369)
T3 construct: whole, on cells; not shown: 9 amino acid myc tag at the 5' end of the construct
T3 sequence (looked up): T1 sequence (looked up) with V130A, I131A, P132A, A157L, A158N, A159H

B1: CP.B8 monoclonal antibody (murine anti-human gc chain, hybridoma ATCC HB-12107) (antibody, V domains shown)
VH: LQESGPGLVAPSQSLSITCTVSGFSLTSYGVHWVRQPPGKGLEWLGVIWAGGSTNYNSALMSRLNINRDNSKSQIFLKMNSLQTDDTAIYYCAREGSTVDSMDYWGQGTTVT
VL: DIVMTQSHKFMSTSVGDSITITCKASQDVTTAVAWYQQKPGQSPKLLIYWASTRHTGVPDRFTGSGSGTDYTLTISSVQAEDLALYYCQQHYITPWTFGGGTKLEI
notes: Used unconjugated and biotin-conjugated; also called CP.B8 mAb; mAb CP.B8
B1 was tested, and the “% binding to mutant gc chain/wildtype gc chain” value [1] was 88%, the “% binding to mutant gc chain/wildtype gc chain” value [2] was 86% and the “% binding to mutant gc chain/wildtype gc chain” value [3] was 21%.

Reference: patent US20020028202A1 (Biogen, published 2002)
